Values of other authors in PMC10653114.

Assays:
[1] = biological target: Asp61 (UniProt position 435, STVTQDGSAVH); conditions: 298 K; Conc. 0.10 (unit not given; K+/Cl–)
[2] = biological target: Glu6 (UniProt position 6, MVKQIESKTAF); conditions: 298 K; Conc. 0.00 (unit not given; Na+/Cl–)
[3] = biological target: Glu47 (UniProt position 47, FHSLSEKYSNV); conditions: 298 K; Conc. 0.00 (unit not given; Na+/Cl–)
[4] = biological target: Glu103 (UniProt position 103, EATINELV---); conditions: 298 K; Conc. 0.00 (unit not given; Na+/Cl–)
[5] = biological target: Glu56 (UniProt position 56, NVIFLEVDVDD); conditions: 298 K; Conc. 0.00 (unit not given; Na+/Cl–)
[6] = biological target: Asp20 (UniProt position 20, LDAAGDKLVVV); conditions: 298 K; Conc. 0.00 (unit not given; Na+/Cl–)
[7] = biological target: Glu95 (UniProt position 95, SGANKEKLEAT); conditions: 298 K; Conc. 0.00 (unit not given; Na+/Cl–)
[8] = biological target: Glu88 (UniProt position 88, GQKVGEFSGAN); conditions: 298 K; Conc. 0.00 (unit not given; Na+/Cl–)
[9] = biological target: Glu98 (UniProt position 98, NKEKLEATINE); conditions: 298 K; Conc. 0.00 (unit not given; Na+/Cl–)
[10] = biological target: Asp26 (UniProt position 26, KLVVVDFSATW); conditions: 298 K; Conc. 0.00 (unit not given; Na+/Cl–)
[11] = biological target: Asp16 (UniProt position 16, FQEALDAAGDK); conditions: 298 K; Conc. 0.00 (unit not given; Na+/Cl–)
[12] = biological target: Glu70 (UniProt position 70, VASECEVKCMP); conditions: 298 K; Conc. 0.00 (unit not given; Na+/Cl–)
[13] = biological target: Glu68 (UniProt position 68, QDVASECEVKC); conditions: 298 K; Conc. 0.00 (unit not given; Na+/Cl–)
[14] = biological target: Glu13 (UniProt position 13, KTAFQEALDAA); conditions: 298 K; Conc. 0.00 (unit not given; Na+/Cl–)
[15] = biological target: Asp64 (UniProt position 64, VDDCQDVASEC); conditions: 298 K; Conc. 0.00 (unit not given; Na+/Cl–)
[16] = biological target: Lys77 (UniProt position 78, MARKMKDTDSE); conditions: 298 K; Conc. 0.10 (unit not given; K+/Cl–); apo (Ca2+-free) calmodulin, per the Supplemental Methods, which build an apo model
[17] = biological target: Lys21 (UniProt position 22, FSLFDKDGDGT); conditions: 298 K; Conc. 0.10 (unit not given; K+/Cl–); apo (Ca2+-free) calmodulin, per the Supplemental Methods, which build an apo model
[18] = biological target: Lys30 (UniProt position 31, GTITTKELGTV); conditions: 298 K; Conc. 0.10 (unit not given; K+/Cl–); apo (Ca2+-free) calmodulin, per the Supplemental Methods, which build an apo model
[19] = biological target: Lys13 (UniProt position 14, QIAEFKEAFSL); conditions: 298 K; Conc. 0.10 (unit not given; K+/Cl–); apo (Ca2+-free) calmodulin, per the Supplemental Methods, which build an apo model
[20] = biological target: Lys75 (UniProt position 76, TMMARKMKDTD); conditions: 298 K; Conc. 0.10 (unit not given; K+/Cl–); apo (Ca2+-free) calmodulin, per the Supplemental Methods, which build an apo model
[21] = biological target: Lys94 (UniProt position 95, FRVFDKDGNGY); conditions: 298 K; Conc. 0.10 (unit not given; K+/Cl–); apo (Ca2+-free) calmodulin, per the Supplemental Methods, which build an apo model
[22] = biological target: Lys47 (UniProt position 287, AINALKSFHKP); assay: NMR (per the title of cited ref 99); conditions: 298 K; Conc. 0.10 (unit not given; K+/Cl–)
[23] = biological target: Lys33 (UniProt position 273, SVQGDKWRALG); assay: NMR (per the title of cited ref 99); conditions: 298 K; Conc. 0.10 (unit not given; K+/Cl–)
[24] = biological target: Lys72 (UniProt position 312, KRMAEKIIEIL); assay: NMR (per the title of cited ref 99); conditions: 298 K; Conc. 0.10 (unit not given; K+/Cl–)
[25] = biological target: Lys67 (UniProt position 307, IPGIGKRMAEK); assay: NMR (per the title of cited ref 99); conditions: 298 K; Conc. 0.10 (unit not given; K+/Cl–)
[26] = biological target: Lys84 (UniProt position 324, SGHLRKLDHIS); assay: NMR (per the title of cited ref 99); conditions: 298 K; Conc. 0.10 (unit not given; K+/Cl–)
[27] = biological target: Lys25 (UniProt position 265, LEVLAKAYSVQ); assay: NMR (per the title of cited ref 99); conditions: 298 K; Conc. 0.10 (unit not given; K+/Cl–)
[28] = biological target: Lys51 (UniProt position 291, LKSFHKPVTSY); assay: NMR (per the title of cited ref 99); conditions: 298 K; Conc. 0.10 (unit not given; K+/Cl–)
[29] = biological target: Lys8 (UniProt position 248, QPSSQKATNHN); assay: NMR (per the title of cited ref 99); conditions: 298 K; Conc. 0.10 (unit not given; K+/Cl–)
[30] = biological target: Lys41 (UniProt position 281, ALGYAKAINAL); assay: NMR (per the title of cited ref 99); conditions: 298 K; Conc. 0.10 (unit not given; K+/Cl–)
[31] = biological target: Lys19 (UniProt position 259, LHITEKLEVLA); assay: NMR (per the title of cited ref 99); conditions: 298 K; Conc. 0.10 (unit not given; K+/Cl–)
[32] = biological target: Asp108 (UniProt position 108, LWQRLDAALGQ); assay: NMR (per the title of cited ref 95); conditions: 300 K; Conc. 0.10 (unit not given; Na+/Cl–)
[33] = biological target: Glu32 (UniProt position 32, RYRGREKTFSA); assay: NMR (per the title of cited ref 95); conditions: 300 K; Conc. 0.10 (unit not given; Na+/Cl–)
[34] = biological target: Asp134 (UniProt position 134, ENERCDELARA); assay: NMR (per the title of cited ref 95); conditions: 300 K; Conc. 0.10 (unit not given; Na+/Cl–)
[35] = biological target: Glu131 (UniProt position 131, GHPENERCDEL); assay: NMR (per the title of cited ref 95); conditions: 300 K; Conc. 0.10 (unit not given; Na+/Cl–)
[36] = biological target: Glu64 (UniProt position 64, LKEHCEVILST); assay: NMR (per the title of cited ref 95); conditions: 300 K; Conc. 0.10 (unit not given; Na+/Cl–)
[37] = biological target: Glu135 (UniProt position 135, NERCDELARAA); assay: NMR (per the title of cited ref 95); conditions: 300 K; Conc. 0.10 (unit not given; Na+/Cl–)
[38] = biological target: Glu119 (UniProt position 119, HQIKWEWVKGH); assay: NMR (per the title of cited ref 95); conditions: 300 K; Conc. 0.10 (unit not given; Na+/Cl–)
[39] = biological target: Asp10 (UniProt position 10, VEIFTDGSCLG); assay: NMR (per the title of cited ref 95); conditions: 300 K; Conc. 0.10 (unit not given; Na+/Cl–)
[40] = biological target: Glu154 (UniProt position 154, TGYQVEV----); assay: NMR (per the title of cited ref 95); conditions: 300 K; Conc. 0.10 (unit not given; Na+/Cl–)
[41] = biological target: Glu61 (UniProt position 61, LEALKEHCEVI); assay: NMR (per the title of cited ref 95); conditions: 300 K; Conc. 0.10 (unit not given; Na+/Cl–)
[42] = biological target: Glu147 (UniProt position 147, MNPTLEDTGYQ); assay: NMR (per the title of cited ref 95); conditions: 300 K; Conc. 0.10 (unit not given; Na+/Cl–)
[43] = biological target: Glu57 (UniProt position 57, AIVALEALKEH); assay: NMR (per the title of cited ref 95); conditions: 300 K; Conc. 0.10 (unit not given; Na+/Cl–)
[44] = biological target: Glu6 (UniProt position 6, MLKQVEIFTDG); assay: NMR (per the title of cited ref 95); conditions: 300 K; Conc. 0.10 (unit not given; Na+/Cl–)
[45] = biological target: Glu129 (UniProt position 129, HAGHPENERCD); assay: NMR (per the title of cited ref 95); conditions: 300 K; Conc. 0.10 (unit not given; Na+/Cl–)
[46] = biological target: Asp94 (UniProt position 94, GWKTADKKPVK); assay: NMR (per the title of cited ref 95); conditions: 300 K; Conc. 0.10 (unit not given; Na+/Cl–)
[47] = biological target: Asp70 (UniProt position 70, VILSTDSQYVR); assay: NMR (per the title of cited ref 95); conditions: 300 K; Conc. 0.10 (unit not given; Na+/Cl–)
[48] = biological target: Glu48 (UniProt position 48, TNNRMELMAAI); assay: NMR (per the title of cited ref 95); conditions: 300 K; Conc. 0.10 (unit not given; Na+/Cl–)
[49] = biological target: Asp61 (UniProt position 435, STVTQDGSAVT); conditions: 298 K; Conc. 0.10 (unit not given; K+/Cl–)
[50] = biological target: Lys55 (UniProt position 184, LSHFGKC----); conditions: 298 K; Conc. 0.015 (unit not given; K+/Cl–)
[51] = biological target: Lys34 (UniProt position 163, KTYGNKCNFCN); conditions: 298 K; Conc. 0.015 (unit not given; K+/Cl–)
[52] = biological target: Asp27 (UniProt position 156, PLCGSDNKTYG); conditions: 298 K; Conc. 0.015 (unit not given; K+/Cl–)
[53] = biological target: Lys29 (UniProt position 158, CGSDNKTYGNK); conditions: 298 K; Conc. 0.015 (unit not given; K+/Cl–)
[54] = biological target: Asp7 (UniProt position 136, AAVSVDCSEYP); conditions: 298 K; Conc. 0.015 (unit not given; K+/Cl–)
[55] = biological target: Lys13 (UniProt position 142, CSEYPKPACTL); conditions: 298 K; Conc. 0.015 (unit not given; K+/Cl–)

For “Highly charge-depleted protein (PDB 6QFS), S61D/T66H variant (Cellulomonas fimi (parent domain; not stated in the article); S61D;T66H (on the 6QFS charge-depleted background; background substitutions not stated))”, the pKa [1] is given as 4.10 ± 0.02.

For “Thioredoxin (human, reduced) (Homo sapiens)”, the pKa [2] is listed as 4.8 ± 0.08, the pKa [3] is listed as 4.1 ± 0.10 and the pKa [4] is listed as 4.4 ± 0.07. For the same substance, the pKa [5] was 3.1 ± 0.10, the pKa [6] was 3.8 ± 0.05 and the pKa [7] was 4.1 ± 0.02. The pKa [8] was 3.7 ± 0.08, the pKa [9] was 3.9 ± 0.02 and the pKa [10] was 9.9 ± 0.10. The pKa [11] was 4.1 ± 0.10, the pKa [12] was 4.6 ± 0.08 and the pKa [13] was 4.9 ± 0.07. The pKa [14] was 4.4 ± 0.07 and the pKa [15] was 3.2 ± 0.06.

In the case of “Calmodulin (apo) (Homo sapiens (as modelled in the article; source species of the measured sample not stated))”, the pKa [16] is given as 10.55 ± 0.10, the pKa [17] is given as 10.55 ± 0.10 and the pKa [18] is given as 10.55 ± 0.10. For the same substance, the pKa [19] was 10.23 ± 0.10, the pKa [20] was 9.87 ± 0.10 and the pKa [21] was 10.55 ± 0.10.

For “DNA polymerase lambda, lyase (8 kDa) domain (Homo sapiens)”, the pKa [22] is given as 10.65 ± 0.14, the pKa [23] is given as 10.07 ± 0.14 and the pKa [24] is given as 9.58 ± 0.14. For the same substance, the pKa [25] was 10.16 ± 0.14, the pKa [26] was 10.27 ± 0.14 and the pKa [27] was 10.23 ± 0.14. For the same substance, the pKa [28] was 10.26 ± 0.14, the pKa [29] was 10.27 ± 0.14 and the pKa [30] was 10.01 ± 0.14. For the same substance, the pKa [31] was 10.07 ± 0.14.

In the case of Ribonuclease HI (Escherichia coli), the pKa [32] is listed as 3.2, the pKa [33] is listed as 3.6 and the pKa [34] is listed as 4.1. The pKa [35] was 4.3, the pKa [36] was 4.4 and the pKa [37] was 4.3. For the same substance, the pKa [38] was 4.1, the pKa [39] was 6.1 and the pKa [40] was 4.4. For the same substance, the pKa [41] was 3.9, the pKa [42] was 4.2 and the pKa [43] was 3.2. For the same substance, the pKa [44] was 4.5, the pKa [45] was 3.6 and the pKa [46] was 3.2. For the same substance, the pKa [47] was 2.6 and the pKa [48] was 4.4.

In the case of “Highly charge-depleted protein (PDB 6QFS), S61D variant (Cellulomonas fimi (parent domain; not stated in the article); S61D (on the 6QFS charge-depleted background; background substitutions not stated))”, the pKa [49] is given as 4.15 ± 0.01.

For “Turkey ovomucoid third domain (OMTKY3) (Meleagris gallopavo)”, the pKa [50] is listed as 11.10 ± 0.06, the pKa [51] is listed as 10.13 ± 0.05 and the pKa [52] is listed as 2.56 ± 0.03. The pKa [53] was 11.12 ± 0.02, the pKa [54] was 2.95 ± 0.03 and the pKa [55] was 9.86 ± 0.03.
